Assay results from IntAct's records for PubMed 12080061.

B1: 182 kDa tankyrase-1-binding protein (Homo sapiens), Q9C0C2 (parent)
chain: MKVSTLRESSAMASPLPREMEEELVPTGSEPGDTRAKPPVKPKPRALPAKPALPAKPSLLVPVGPRPPRGPLAELPSARKMNMLAGPQPYGGSKRPLPFAPRPAVEASTGGEATQETGKEEAGKEEPPPLTPPARCAAPGGVRKAPAPFRPASERFAATTVEEILAKMEQPRKEVLASPDRLWGSRLTFNHDGSSRYGPRTYGTTTAPRDEDGSTLFRGWSQEGPVKSPAECREEHSKTPEERSLPSDLAFNGDLAKAASSELPADISKPWIPSSPAPSSENGGPASPGLPAEASGSGPGSPHLHPPDKSSPCHSQLLEAQTPEASQASPCPAVTPSAPSAALPDEGSRHTPSPGLPAEGAPEAPRPSSPPPEVLEPHSLDQPPATSPRPLIEVGELLDLTRTFPSGGEEEAKGDAHLRPTSLVQRRFSEGVLQSPSQDQEKLGGSLAALPQGQGSQLALDRPFGAESNWSLSQSFEWTFPTRPSGLGVWRLDSPPPSPITEASEAAEAAEAGNLAVSSREEGVSQQGQGAGSAPSGSGSSWVQGDDPSMSLTQKGDGESQPQFPAVPLEPLPTTEGTPGLPLQQAEERYESQEPLAGQESPLPLATREAALPILEPVLGQEQPAAPDQPCVLFADAPEPGQALPVEEEAVTLARAETTQARTEAQDLCRASPEPPGPESSSRWLDDLLASPPPSGGGARRGAGAELKDTQSPSTCSEGLLGWSQKDLQSEFGITGDPQPSSFSPSSWCQGASQDYGLGGASPRGDPGLGERDWTSKYGQGAGEGSTREWASRCGIGQEEMEASSSQDQSKVSAPGVLTAQDRVVGKPAQLGTQRSQEADVQDWEFRKRDSQGTYSSRDAELQDQEFGKRDSLGTYSSRDVSLGDWEFGKRDSLGAYASQDANEQGQDLGKRDHHGRYSSQDADEQDWEFQKRDVSLGTYGSRAAEPQEQEFGKSAWIRDYSSGGSSRTLDAQDRSFGTRPLSSGFSPEEAQQQDEEFEKKIPSVEDSLGEGSRDAGRPGERGSGGLFSPSTAHVPDGALGQRDQSSWQNSDASQEVGGHQERQQAGAQGPGSADLEDGEMGKRGWVGEFSLSVGPQREAAFSPGQQDWSRDFCIEASERSYQFGIIGNDRVSGAGFSPSSKMEGGHFVPPGKTTAGSVDWTDQLGLRNLEVSSCVGSGGSSEARESAVGQMGWSGGLSLRDMNLTGCLESGGSEEPGGIGVGEKDWTSDVNVKSKDLAEVGEGGGHSQARESGVGQTDWSGVEAGEFLKSRERGVGQADWTPDLGLRNMAPGAVCSPGESKELGVGQMDWGNNLGLRDLEVTCDPDSGGSQGLRGCGVGQMDWTQDLAPQNVELFGAPSEAREHGVGGVSQCPEPGLRHNGSLSPGLEARDPLEARELGVGETSGPETQGEDYSSSSLEPHPADPGMETGEALSFGASPGRCPARPPPSGSQGLLEEMLAASSSKAVARRESAASGLGGLLEEEGAGAGAAQEEVLEPGRDSPPSWRPQPDGEASQTEDVDGTWGSSAARWSDQGPAQTSRRPSQGPPARSPSQDFSFIEDTEILDSAMYRSRANLGRKRGHRAPVIRPGGTLGLSEAADSDAHLFQDSTEPRASRVPSSDEEVVEEPQSRRTRMSLGTKGLKVNLFPGLSPSALKAKLRPRNRSAEEGELAESKSSQKESAVQRSKSCKVPGLGKPLTLPPKPEKSSGSEGSSPNWLQALKLKKKKV

Variants of: B1
Settings: with tnks1_human TNKS

effect of a mutation on the interaction	Variant
disrupting interaction strength	G1513A
